# According to the nanobody polyreactivity screen of Harvey et al. (2022):
# Test: yeast display, Sf9 membrane polyspecificity reagent, FACS + sequencing; frameworks hold sequencing errors
# Summary of the method: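 A synthetic nanobody library was expressed on Saccharomyces cerevisiae BJ5465 by galactose induction for 36–48 hours. The library was stained for 1 hour at 4 °C with 10% biotinylated, detergent-solubilized Sf9 membrane reagent and enriched with streptavidin microbeads before FACS. Low and high (top ~1%) gates were set on anti-HA fluorescence for expression and streptavidin fluorescence for reagent binding, and each polyreactivity label reflects the gate of origin.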
row,Sequence,polyreactivity (PSR sort gate)
1,QVQLVESAGGLVQAGGSLRLSCAASGITFEVYAMGWYRQAPGKERELVAAITGSGSRTYYADSVKGRFTISRDNAKNTVYLQMNSLKPEDTAVYYCAVKGFSTRSYREFDYWGQGSQVTVSS,low polyreactivity
2,QVQLVESGGGLVQAGGSLRLSCAASGSTFVNNAMGWYRQAPGKERELVAAISWSGGSTYYADSVKGRFTISRDNAKNTVYLQMNSLNPEDTAVYYCAADGNARAAMDYWGQGTQVTVSS,low polyreactivity
3,QVQLVESGGGLVQAGGSLRLSCAASGFTFYRNAMGWSRQAPGKERELVAAISRGGRTYYADSVKGRFTISRDNAKNTVYLQMNSLKPEDTAVYYCAVGYSGYGSSMDYWGQGTQVTVSS,high polyreactivity
4,QVQLVESGGGLVQAGGSLRLSCAASGRTFRRYTMGWYRQAPGKERELVATISWSGGTTYADSVKGRFTISRDNAKNTVYLQMNSLKPEDTAVYFCAAVSYVYRYYWGQGTQVTVSS,low polyreactivity
5,QVQLVESGGGLVQAGGSLRLSCAASGRIFVGYALGWYRQAPGKERELVAAINRSGSSTYYADSVKGRFTISRDNAKNTVYLQMNSLKPEDTAVYYCNARSGNRYGPRYDYWGQGTQVTVSS,high polyreactivity
6,QVQLVESGGGLVQAGGSLRLSCAASGSTFRSYAMGWYRQAPGKEREFVAALSSSDDSSYYADSVKGRFTISRDNAKNTVYLQMNSLKPEDTAVYYCAARPWNDGYYVGRFHMDYWGQGTQVTVSS,low polyreactivity
7,QVQLVESGGGLVHAGGSLRLSCAASGSTLGSYAMGWYRQAPGKERELVARITTGGGTSYADSVKGRFTISRDNAKNTVYLQMNSLKPEDTAVYYCAATFIYGARTYGYWGQGTQVTVSS,high polyreactivity
8,QVHLVESGGGLVQAGGSLRLSCAASGITFYLYAMGRYRQAPAKERELVAAINASGGSTYYADSVKGRFTISRDNAKNTVYLQMNSLKPEDSGVYYCAASTKKTRGFNYWGQGSQVTVSS,high polyreactivity
9,QVQLVESGGGLVQAGGSLRLSCAASGITFGWYAMGWYRQAPGKERELVAAISTGSSTYYADSVKGRFTISRDNAKNTVYLQMNSLKPEDTAVYYCAAYYGISFDYWGQGSQVTVSS,high polyreactivity
10,QVQLVESGGGLVQAGGSLRLSCAASGITLSVYAMGWYRQAPRKERELVASISSGGTSTYYADSVKGRFTISRDNAKNTVYLLMISLKPEDTAVYYCAAYSYYTGDQYSYDYWGQGTQVTVSS,low polyreactivity
11,QVQLQESGGGLVQAGGSLRLSCAASSNNTTLDVMCWYRQAPGKEREFVASIGSGGITNYADSVKGRFTISRDNAKNTVYLQMNSLKPEDTAVYYCAVLNQAYTDLIYWGQGTQVTVSS,high polyreactivity
12,QVQLVESRGGLVQAGGSLRLSSASSGSIFDIYEMGRYRQAPGKERELLASITWSRGSTYYADSVKGRFTISRDNAKNSVYLQINCLKPEDTAVYYCGTDKLFGRTVRMDYWGQGTQVTVSS,low polyreactivity
13,QDQLVESGGGLVQAGGSLRLSCAASGSTLYAYAMGWYRQAPGKERELVAASRTGGSTYYADSLKGRFTISRDNAKNTVYLQMNSLKPEDTAVYYCAALYYHEYDYWGQGTQVTVSS,low polyreactivity
14,QVQLVESGGGLVQAGGSLRLSCAASGSIFYSYVMGWYRQAPGKERELVAAISRNGQSTYYADSVKGRFTISRDNAKNTVYLQMNSLKPEDTAVYYCATRGTKSIKDVPGIRYGYWGQGTQVTVSS,high polyreactivity
15,QVQLVESGGGLVQAGGSLRLSCAASGRTFKLYAMGWYRQAPGKERELVAAISRSSGSTYYADSVKGRFTISRDNAKNTDYLQMNSLKPEDTAVYYCAARKNRAYGYWGQGTQVTVSS,high polyreactivity
16,QVQLVESGGGLVQAGGSLRLSCAASGGIFPYYAMGWYRQAPGKERELVAGISQNDGRTYYADSVKGRFTISRDNAKNTVYLQMNSLKPEDTAVYYCATDYWYPRYGYWGQGTQVTVSS,low polyreactivity
17,QVQLVESGGGLVQAGGSLRLSCAASGLIFDSYVMGWYRQAPGKERELVAVISGSGGSTYYADSVKGRFTISRDNAKNTVYLQMNSLKPEDTAVYYCAAQYSAGQYYGYGYWGQGTQVTVSS,high polyreactivity
18,QVQLVESGGGLVQAGGSLRLSSAASGSTFPNYAMGWYRQAPGKERELVAAITSSTGRTYYADSVKGRFTISRDTAKNSVYVPLHSLKPADTAVYYCNAEVYSDPYNDHDYWGQGTQVTVSS,low polyreactivity
19,QVQLVESGGGLVHAGGSLRLSCAASGRTFKYYGMGWYREAPGKERELVATISRSSSRTYYADSVKGRFTISRDNAKNTVYLQMNSLKPEDTAVYYCAADRWGARRKQYDENGYWGQGTQVTVSS,high polyreactivity
20,QVQLVESGAGLVQARGSLRISCAASGSIFGRYAMGWYRQAPRKERELVASIYSTGGRTYYADSVKGRFTISRDNAKNTVYLQMNSLKPEDTAVYYCAAKFYEYSTAGTQWIRYYYWGQGTQVTVSS,high polyreactivity
21,QVQLVESGGGLVQAGGSLRLSCAASGRIFRKYDMGWYRPAPGKERELVAAISGTGITYYADSVKGRFTISRDNAKNTVYLQMNSLKPEDTAVYYCARGSKPRAWSWAYPSATSIYDYWGQGTQVTVSS,low polyreactivity
